Assay results taken from the nanobody polyreactivity screen of Harvey et al. (2022).

Experiment: yeast display, Sf9 membrane polyspecificity reagent, FACS + sequencing; frameworks hold sequencing errors
Summary of the method: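 A nanobody's polyreactivity label depends on the gate it was sorted from. Yeast display cells were stained with 10% biotinylated, detergent-solubilized Sf9 membrane reagent for 1 hour at 4 °C, enriched on streptavidin microbeads and sorted by FACS. The low and high (top ~1%) gates were set on anti-HA fluorescence for expression and streptavidin fluorescence for reagent binding.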

Row | Sequence | polyreactivity (PSR sort gate)
1 | QVQLVESGGGLVQAGGSLRLSCAASGRTSDVYAMGWYRQAPGKERALVAAISSGGSTSYADSVKGRFTISRDNAKNTVNLQMNSLKPEDTAVYYCAADSSGQSRFGYWGQGTQVTVSS | low polyreactivity
2 | QVQLVESGGGLVQAGGSLRLSCAASGRTSFGYAMGWYRQAPGKERELVAVISIGGTTYYADSVKGRFTISRDNAKNTVYLQMNSLKPEDTAVYYCAKDAETYYWGSYKSLYDYWGQGTQVTVSS | low polyreactivity
3 | QVQLVESGGGLVQAGGSLRLSCAASGRTSFNYTMGWYRQAPGKERELVAAITSGGDTYYADSVKGRFTISRDNAKNTVYLQMNSLKPEDTAVYYCNADPDFPSKFDDPYSYDYWGQGTQVNVSS | low polyreactivity
4 | QVQLVESGGGLVQAGGSLRLSCAASGRTSGFNTMGWYRQAPGKERELVAAISFSGGSTYYADSVKGRFTISRDNAKNTVYLQMNSLKPEDTAVYYCNALYRYLYRSGDYWGLGTQVTVSS | low polyreactivity
5 | QVQLVESGGGLVQAGGSLRLSCAASGRTSGFNTMGWYRQAPGKERELVAAISFSGGSTYYADSVKGRFTISRDNAKNTVYLQMNSLKPEDTAVYYCNALYRYLYRSGDYWGQGTQVTVSS | low polyreactivity
6 | QVQLVESGGGLVQAGGSLRLSCAASGRTSGFNTMGWYRQAPGKERELVAAISFSGGSTYYADSVKGRFTISRDYSKNTVYLQMNSLKPEDTAVYYCTALYRYLYRSGDYWGQGTQVTVSS | low polyreactivity
7 | QVQLVESGGGLVQAGGSLRLSCAASGRTSGVYSMGWYRQAPGKERELVAAISRSGDSTYYADSVKGRFTISRDNAKNTVYLQMNSLKPEDTAVYYCATTFKRSMYWGQGTQVTVSS | high polyreactivity
8 | QVQLVESGGGLVQAGGSLRLSCAASGRTSIGYARGWYRQAPGKERELVAVISIGGTTYYADSVKGRFTISRDNAKNTVYLQMNSLKPEDTAVYYCAADSFPAYLGFVGFDYWGQGTQVTVSS | low polyreactivity
9 | QVQLVESGGGLVQAGGSLRLSCAASGRTSILYAMGWYRQAPGKERELVATIYSGGRTYYADSVKGRFTISRDNAKNTVYLQMNSLKPEDTAVYYCAARPNATPRGQTKHYYWGQGTQVTVSS | high polyreactivity
10 | QVQLVESGGGLVQAGGSLRLSCAASGRTSKGNTMGWYRQAPGKEREFVATISRSGGSTYYADSVKGRFTISRDNAKNTVYLQMNSLKPEDTAVYYCAARISRQRSYSRDYWGQGTQVTVSS | high polyreactivity
11 | QVQLVESGGGLVQAGGSLRLSCAASGRTSLAYAMGWYRQAPGKERELVAAINTRGGSTYYADSVKGRFTISRDNAKNTVFLQINSLKPEDTAVYYCAKGPRLYFTRDKAHWKYDYWGQGTQVTVSS | low polyreactivity
12 | QVQLVESGGGLVQAGGSLRLSCAASGRTSLGYAMGWYRQAPGKERELVAAISGGTTYYADSVKGRCTISRDNAKNPVYLQMNSLKPEDTAVYYCNAVYVWFSGAPRRYTKRYYWGQGTQVTVSS | high polyreactivity
13 | QVQLVESGGGLVQAGGSLRLSCAASGRTSLRYSMGWYRQAPGKERELVAAITSSGATTYYADSVKGRFTISRDNAKNTVYLQMNSLKPEDTAVYYCAAVYSAKRGSGGFGYWGQGTQVTVSS | high polyreactivity
14 | QVQLVESGGGLVQAGGSLRLSCAASGRTSNFNAMGWYRQAPGKERELVAAINSDGSTYYADSVKGRFTISRDNAKNTVYLQMNSLKPEDTAVYYCAAVSLFRDSQFDYWGQGTQVTVSS | low polyreactivity
15 | QVQLVESGGGLVQAGGSLRLSCAASGRTSQYYAMGWYRPAPGKERELVASISRSGRTYYADSVKGRFTISRDNAKNTVYLQMNSLKPEDTAVYYCAAAKRTTHRYPYDYWGQGTQVTVSS | high polyreactivity
16 | QVQLVESGGGLVQAGGSLRLSCAASGRTSRHYAMGWYRQAPGKERELVAAISRSGGSTYYADSVKGRFTISRDNAKNTFYLQMNILKPDDSAVYYCNKDLKYYTSTYDYWGQGTQVTVSS | high polyreactivity
17 | QVQLVESGGGLVQAGGSLRLSCAASGRTSRYAMGWSRQAPGKERELVAAITSSGGRTYYADSVKGRFTISRDNAKNTVYLQMNSLKPEDTAVYYCAAGYLLWRTWDYAAGHNYWGQGTQVTVSS | high polyreactivity
18 | QVQLVESGGGLVQAGGSLRLSCAASGRTSSSNAMGWYRQAPGKERELVATISRTGSTYYADSVKGRFTISRDNAKNTVYLQMNSLKPEDTAVYYCNRYFSEALLHGSSYNRYYYWGQGTQVTVSS | low polyreactivity
19 | QVQLVESGGGLVQAGGSLRLSCAASGRTSTGYAMGWYRPAPGKERELVAGIDKIGGRTYYADSVKGRFTISRDNEKNTVYLQMNSLKPEDTAVYYCNRVPRRSIRYDYWGQGTKVTVSS | high polyreactivity
20 | QVQLVESGGGLVQAGGSLRLSCAASGRTTLLYAMGWYRQAPGKERELVATIRYTGGSTYADSVKGHFTISRDNAKNTVYLQMNILKPEDTAVYYCNARSYQYDGGHRYWGQGTQVTVSL | high polyreactivity
21 | QVQLVESGGGLVQAGGSLRLSCAASGRTVGVYAMGWYRQAPGKERELVATITSGASTNYADSVKARFTISRDNAKNTVYLQMTSLKPEDTAVYYCNARRVAYASYSHPRVLDDYWGQGTQVTVST | low polyreactivity
22 | QVQLVESGGGLVQAGGSLRLSCAASGRTVGWYAMGWYRQAPGKERELVAAITWRGGSTYYADSVKGRFTISRDNAKNTVYLQMTSLKPEDTAVYYCAAAAEKRSYYWGQGTQVTVSS | high polyreactivity

Row | Sequence | polyreactivity (PSR sort gate)
23 | QVQLVESGGGLVQAGGSLRLSCAASGRTVLHYDMGWYRQAPGKERELVASISSGVSTHYADSVKGRFTISRDNAKNTVYLQMNSLQPEDTAVYYCAARPYRFGRYGYDYDYWGQGTQVTVSS | high polyreactivity
24 | QVQLVESGGGLVQAGGSLRLSCAASGRTVWGYGMGWYRQAPGKERELVATISSGGSTYYADSVKGRFTISRDNAKNTVYLQMNSLKPEDTAVYYCAARPPRTYWRYQSDYWGLGTQVTVSS | high polyreactivity
25 | QVQLVESGGGLVQAGGSLRLSCAASGRTYDQYVMGWYRQAPGKERELVAAITSGGSTYYADSVKGRFTISRDNAKNTVYLLMNSLKPEDTAVYYCNARTSVLHDYWGQGTQVTVSS | low polyreactivity
26 | QVQLVESGGGLVQAGGSLRLSCAASGRTYGIYAMGWYRQAPGKERELVADITIGGSTYYADSVMGRFTISRDNAKNTVYLQMNSLKPEDTAVYYCNADFVVQYYFTYYRVFTYDYWGLGTQVTVSS | low polyreactivity
27 | QVQLVESGGGLVQAGGSLRLSCAASGRTYGRNAMGWYRQEPGKDRELVASITKRGGSTYYADSVKGRFTISRDNAKNTVYLQMNSLKPEDTAVYYCAVEAYDYWGQGSQVTVSS | high polyreactivity
28 | QVQLVESGGGLVQAGGSLRLSCAASGRTYGYYAMGWYRQAPGKERELVAAITRSGGSTYYADSVKGRFTISRDNAKNTVYLQMNSLKPEDTAVYYCNAVYYKGYGYWGQGSQVTVSS | high polyreactivity
29 | QVQLVESGGGLVQAGGSLRLSCAASGRTYKYYAMGWYRQAPGKERELVAAISRGGSTNYADSVKGRFTISRDNAKKTVYLQVNSLKPEDTAVYYCARRYIVQSGDDYWGQGTQVSVSS | low polyreactivity
30 | QVQLVESGGGLVQAGGSLRLSCAASGRTYPGYSMGWYRQAPGKERELVAAITRGSTNYADSVKGRFTISRDNAKNTVYLQMNSLKPEYTAVYYCATRGYYYWTHYDYWGHGTQVTVSS | low polyreactivity
31 | QVQLVESGGGLVQAGGSLRLSCAASGRTYYDYAKGCYRQAPGKEREFVSAITDRDASTSYADSVKGRFTISRDNAKTTVYLQMNSLKPYDTAVYYCAADEYWYKPYVGELYAYVYWGEGTQVTVSS | low polyreactivity
32 | QVQLVESGGGLVQAGGSLRLSCAASGRVYAMGWYRQAPGKERELVAAISRNGGSTYYADSVKGRFTISRDNAKNNVYLQMNSLKPEDTAVYYCNKYSGYKGTDGGDYWGQGTQVTVSS | low polyreactivity
33 | QVQLVESGGGLVQAGGSLRLSCAASGSARYAMGWYRQAPGKERELVAAISRRGGSTFYADSVKGRFTISRDNAKNTVYLQMHSLKPEDTAVYYCAADGRISYDYWGQGTQVTVSS | low polyreactivity
34 | QVQLVESGGGLVQAGGSLRLSCAASGSFLEPYSMGRYRQATGKERELVAAISFSDTSTYYADSVKGRFTISRDNAKNTVYLQMNSLKQEDTAVYYCAATYVLYWGYEYDYWGQGTQVTVSS | high polyreactivity
35 | QVQLVESGGGLVQAGGSLRLSCAASGSFLVYYAMGWYRQAPGKERELVAAISWRGDSTSYADSVKGRFTISRDNAKNTVYLQMNSLKPEETAVYYCATAHDYAFYRYWYVPSEYNYWGQGTQVTVSS | low polyreactivity
36 | QVQLVESGGGLVQAGGSLRLSCAASGSHFSSYVMGGYRQGPGKERELVAAISSIGGSTYYADSVKGRFTISRDNAKNTVYLQMNSLKPEDTAVYYCAAEPPGSTYEGGYWGQGTQVTVSS | low polyreactivity
37 | QVQLVESGGGLVQAGGSLRLSCAASGSIAHYAMGWYRQDPGKERELVAAINWSGGSTNYADSVKGRFTISRDNAKNTVYLQMNSMKPEDTAVYYCSAQKRGPGYPYYYWGQGTQVTVSS | high polyreactivity
38 | QVQLVESGGGLVQAGGSLRLSCAASGSICAYYAMGWYRQAPGKERELVAAISGTGGSTNYADSVKGRFTISRDNAKNNVYLQMNSLKPEDTAVYYCAKDYSFQWRNEFNLAGEYDYWGQGTQVTVSS | low polyreactivity
39 | QVQLVESGGGLVQAGGSLRLSCAASGSICGSYAMGWYRQAPGKERELVAAITRSGSRTYYADSVKGRFTISRDNAKNTVYLQMISLKPEDTAVYFCATGYPGGFDYWGQGTQVTVSS | high polyreactivity
40 | QVQLVESGGGLVQAGGSLRLSCAASGSICRRNDMGWYRQAPGKERELVAAISSNGGSTYYADSVKGRFTISRDNAKNTVYLQMNSLKPEDTAVYYCNALVRVRYSPRYGYDYWGQGTQVTVSS | high polyreactivity
41 | QVQLVESGGGLVQAGGSLRLSCAASGSICVQYAMGRSRQAPGKERELVAAISNSGGSTYYADSVKGRFTISRDTAKNTVYLQMNSLKPEDTAVYYCAARYHTRGAGRPYYYWGQGTQVTVSS | high polyreactivity
42 | QVQLVESGGGLVQAGGSLRLSCAASGSIFAAYTMGWYRQAPGKERELVAAISVSTVSTYYADSVKGRFTISRDNAKNTVYLHMNSLKPEDTAVYYCNADATDSYPEKDDHDSWGQGTQVTVSS | low polyreactivity
43 | QVQLVESGGGLVQAGGSLRLSCAASGSIFAAYTMGWYRQAPGKERELVAAISVSTVSTYYADSVKGRFTISRDTAKNTVYLQMNRLKPEDTAVYYCNADATDSYPEKDEHDSWGQGTQVTVSS | low polyreactivity
